Experimental data: patent publication US20230121197A1, “ANTIBODIES SPECIFICALLY BINDING THE CARBOXYMETHYLATED CATALYTIC SUBUNIT OF PROTEIN PHOSPHATASE 2A” (Medizinische Universität Wien, priority 2020, published 2023)

B1: 7C10-C5 monoclonal antibody (antibody, V domains shown)
VH: DVQLQESGPGLVKPSQSLSLTCSVTGYSITSGYYWNWIRQFPGNKLEWMGYISYDGSNNYNPSLKNRISITRDTSKNQFFLKLNSVTTEDTATYYCAGRFAYWGQGTLVTVSA
VL: DVLMTQTPLSLPVSLGDQASISCRSSQSIVHSNGNTYLEWYLQKPGQSPKLLIYKVSNRFSGVPDRFSGSGSGTDFTLKINRVEAEDLGVYYCFQGSHVPWTFGGGTKLEIK
notes: Used as hybridoma culture supernatant (ELISA, Western blot, IHC) or at 50 µg/mL (SPR); also called 7C10 X63; clone 7C10-C5
B2: 7C10-C5: α-carboxymethylation specific mouse monoclonal IgG1 antibody from single clone hybridoma 7C10-C5 (DSM ACC3350) (antibody)
heavy: MYRMQLLSCIALSLALVTNSDVQLQESGPGLVKPSQSLSLTCSVTGYSITSGYYWNWIRQFPGNKLEWMGYISYDGSNNYNPSLKNRISITRDTSKNQFFLKLNSVTTEDTATYYCAGRFAYWGQGTLVTVSAAKTTAPSVYPLAPVCGDTTGSSVTLGCLVKGYFPEPVTLTWNSGSLSSGVHTFPAVLQSDLYTLSSSVTVTSSTWPSQSITCNVAHPASSTKVDKKIEPRGPTIKPCPPCKCPAPNLLGGPSVFIFPPKIKDVLMISLSPIVTCVVVDVSEDDPDVQISWFVNNVEVHTAQTQTHREDYNSTLRVVSALPIQHQDWMSGKEFKCKVNNKDLPAPIERTISKPKGSVRAPQVYVLPPPEEEMTKKQVTLTCMVTDFMPEDIYVEWTNNGKTELNYKNTEPVLDSDGSYFMYSKLRVEKKNWVERNSYSCSVVHEGLHNHHTTKSFSRTPGK
light: MDMRVPAQLLGLLLLWLSGARCDVLMTQTPLSLPVSLGDQASISCRSSQSIVHSNGNTYLEWYLQKPGQSPKLLIYKVSNRFSGVPDRFSGSGSGTDFTLKINRVEAEDLGVYYCFQGSHVPWTFGGGTKLEIKADAAPTVSIFPPSSEQLTSGGASVVCFLNNFYPKDINVKWKIDGSERQNGVLNSWTDQDSKDSTYSMSSTLTLTKDEYERHNSYTCEATHKTSTSPIVKSFNRNEC
modifications: Amino acid sequence of the recombinant 7C10-C5 heavy chain; Amino acid sequence of the recombinant 7C10-C5 light chain

Key:
[1] = biological target: PP2Ac C-terminal peptide pT304-meL309, ac-HVTRRpTPDYFL-CH3 (human); experiment: ELISA, peptide coated at 2 µg/ml, supernatant 1:50
[2] = biological target: PP2Ac C-terminal peptides (L309, meL309, amL309, pT304, pY307) (Homo sapiens, UniProt P67775); experiment: ELISA with PP2Ac C-terminal undecapeptides; format: binding
Method: 7C10-C5 was tested for its specificity to the unmodified, methylated or amidated carboxyl group of Leu^309 at the carboxy-terminus of PP2Ac by ELISA with 3 different undecapeptides (11-mers) (FIG. 4). Methylated and amidated peptides were compared because at physiological pH the α-carboxyl-group of Leu^309 is negatively charged and either the methylation or amidation of the α-carboxyl-group neutralizes its negative charge. This allowed the inventors to discriminate between a specificity for the amidated charge-neutralized PP2Ac C-terminus or the carboxymethylated charge-neutralized PP2Ac C-terminus.
Specifically, flat-bottom Nunc-Immuno Medisorp 96-well ELISA plates (Thermo; 467320) were coated o/n at 4° C. with 50 μl of either a peptide of the sequence ac-HVTRRTPDYFL-OH (L309; unmodified) (SEQ ID NO:18) at a concentration of 2 μg/ml, a peptide of the sequence ac-HVTRRTPDYFL-CH3 (meL309; methylated) (SEQ ID NO:18) at a concentration of 2 μg/ml in TBS (137 mM NaCl (AppliChem, #131659, 2.7 mM KCl (AppliChem, #131494), 24.8 mM Tris (AppliChem, #A1086), pH 7.4 with HCl) or a peptide of the sequence ac-HVTRRTPDYFL-NH2 (amL309; amidated) (SEQ ID NO:18) at a concentration of 2 μg/ml in TBS. Of note, the “ac-” in the peptides described here and in other Examples refers to an acetylated N-terminus. Said acetylation neutralizes the positive charge at the N-terminus, and the free charged N-terminus is thereby removed.
Then, the wells were washed once with TBS, blocked with 200 μl of 2% bovine serum albumin (BSA) (Sigma, A9647) in TBS for 1 hour at RT and washed again once with TBS. […] Bound antibodies were detected colorimetrically by addition of 50 μl of 33 μg/ml […] (TMB) (Sigma, T2885) in 0.1 M sodium acetate pH 6.0 and 0.01% H2O2 (Sigma, H1009). The colorimetric reaction was stopped after 10 min by addition of 50 μl 0.5 M H2SO4, and measured at 450 nm and 560 nm with a Perkin Elmer VICTOR® Nivo™ microplate reader. The results from 560 nm read were subtracted from the 450 nm read. […]

| Molecule | fold higher ELISA signal intensity than with the carboxymethylated peptide without phosphorylation (meL309) [1] [fold] | effect of concurrent Tyr307 phosphorylation on binding to carboxymethylated PP2Ac C-terminus [2] | detection difference carboxymethylated+Thr304 phosphorylated versus carboxymethylated peptide ([2]; at lower peptide concentrations (dilution series 8 μg/ml to 7.8125 ng/ml)) [fold] | signal intensity α-carboxymethylated PP2Ac peptide when Thr304 is phosphorylated versus not phosphorylated ([2]; peptides at 2 μg/ml) [fold] |
| --- | --- | --- | --- | --- |
| B1 | 1.6 |  |  |  |
| B2 |  | not significantly altered | 4 | 1.6 |
